Experimental data taken from patent US20230203471A1, “METHOD AND PLATFORM FOR DISRUPTING INTRACELLULAR MICROTUBULES” (National Tsing Hua University, priority 2021, published 2023).
Values belong to the molecule of their own block, whether it stands above or below them.

Assays:
[1] = target: intracellular microtubules (MTs)
[2] = target: MT-binding domain of ensconsin-cyan fluorescent protein-FKBP-rapamycin binding domain (EMTB-CFP-FRB) (Artificial Sequence); assay: FRET live-cell imaging in co-transfected HeLa cells, 100 nM rapamycin
[3] = system: EMTB-YFP-CIBN-labeled MTs in COS7 cells; assay: Blue-light-induced recruitment of Cry2 proteins onto EMTB-YFP-CIBN-labeled MTs and MT disassembly; assay type: cell-based, African green monkey; settings: COS7 cells
Protocol: The procedures of photostimulation are as follows. COS7 cells were plated on poly(d-lysine)-coated coverslips and cultured in six-well plates (Thermo Scientific) for 48 hr. Before imaging, cells were incubated with SPY650-tubulin (1000-fold dilution; Spirochrome) at 37° C. for 1 hr. Local photostimulation was carried out with a fluorescence microscope (Nikon) equipped with a digital micromirror device, polygon 400 (MIGHTEX), and a 488-nm light source. Cells were illuminated with the blue light (5 sec on/1 sec off; 1.6 nW/µm^2) for the indicated duration. The mCherry and SPY650-tubulin were simultaneously imaged during photostimulation using Nikon element AR software.
The inventors next tried to use an optogenetic system to trigger MT disassembly in a sub-cellular region of interest during a specific period of time. Cryptochrome 2 (Cry2) (SEQ ID NO:14) and CIBN (N-terminal 170 amino acids of CIB1) (SEQ ID NO:15), two blue light-sensitive dimerizing partners, were used in our MT-manipulating system. Cry2, which was tagged with the red fluorescent protein mCherry (mCh—Cry2), was rapidly translocated onto EMTB—YFP—CIBN-labeled MTs only in regions illuminated with light (T½ = 34.6 ± 7.58 sec) and dissociated from MTs to the cytosol when the light was off (T½ = 28.2 ± 4.88 sec; see FIGS. 6A and 6B).
FIGS. 6A and 6B show using light to disassemble MTs in a reversible and location-specific manner. In FIG. 6A, COS7 cells co-transfected with EMTB—YFP—CIBN and mCh—Cry2 (red) were incubated with SPY650-tubulin (SPY650-tub) to visualize MTs; the cells were illuminated by blue light within a specified region (indicated by the dotted circle) for the indicated time period; scale bar, 10 µm.
The inventors then used light to control spastin-mediated MT disassembly in a spatially and temporally specific manner. dNSpastin3Q tagged with mCh-Cry2 was co-expressed with EMTB—YFP—CIBN in COS7 cells. MTs were labeled with SPY650-tubulin in these experiments.
FIGS. 6C and 6D show using light to disassemble MTs in a reversible and location-specific manner. In FIG. 6C, COS7 cells co-transfected with EMTB-YFP-CIBN and dNSpastin3Q-mCh—Cry2 were incubated with SPY650-tubulin to visualize MTs; the cells were illuminated by blue light as in FIG. 6A; scale bar, 10 µm. […] Data are shown as the mean ± S.E.M.

[4] = target: EMTB-YFP-CIBN (Artificial Sequence); assay: live-cell imaging in co-transfected COS7 cells, after blue light
[5] = target: EMTB-YFP-CIBN (Artificial Sequence); assay: live-cell imaging in co-transfected COS7 cells, local blue light
[6] = target: T1, spastin (Mus musculus, UniProt Q9QYY8, K308Q/K309Q/K310Q); assay: Reversal of MT disruption by spastin inhibition and MT regrowth in HeLa cells; assay type: cell-based; settings: regrowth in cytosol (acentrosome) after spastazoline
T1 construct: expressed in transfected cells; host or cells: HeLa (CCL-2)
T1 sequence (Q9QYY8 with tags, fused parts or gaps K308Q/K309Q/K310Q): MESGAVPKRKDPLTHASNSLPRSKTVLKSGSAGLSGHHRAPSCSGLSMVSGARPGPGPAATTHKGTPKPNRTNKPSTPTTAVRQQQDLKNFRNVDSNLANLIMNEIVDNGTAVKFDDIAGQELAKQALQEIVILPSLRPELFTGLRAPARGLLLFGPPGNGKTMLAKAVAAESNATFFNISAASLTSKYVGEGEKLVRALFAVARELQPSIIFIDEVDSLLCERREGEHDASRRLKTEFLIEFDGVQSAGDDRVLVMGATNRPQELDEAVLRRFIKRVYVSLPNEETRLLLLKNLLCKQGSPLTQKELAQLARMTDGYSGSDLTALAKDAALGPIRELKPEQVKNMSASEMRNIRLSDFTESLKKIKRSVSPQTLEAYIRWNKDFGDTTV
Protocol: FIGS. 2S to 2U show inhibition of spastin activity reverses MT disruption. In FIG. 2S, HeLa cells co-transfected with EMTB—CFP—FRB (black) and dNSpastin3Q-YFP-FKBP (green) were pre-treated with rapamycin for 28 min to induce acute MT disassembly; spastazoline (10 µM), a spastin inhibitor, was then added to the cultures to halt the MT disruption system; arrows indicate the centrosome-derived MTs; scale bar, 10 µm. […] Data (red) are shown as the mean ± SD. A Student’s t-test was performed to generate the indicated p-value.
Intriguingly, nascent MTs from the fragments derived from dNspastin3Q-mediated cleavage assembled at a polymerization rate of 0.92 ± 0.04 µm/sec, which was slightly slower than the regrowth rate of 1.17 ± 0.07 µm/sec for MTs from centrosomes (see FIG. 2U). […] In particular, microtubule filaments are composed of microtubule molecules. If they are only disassembled into microtubule molecules and the raw materials are still there, they would have the opportunity to quickly assemble them back. But if the microtubule molecules are degraded and the raw materials are gone, they can’t be quickly reassembled. In summary, rapid recruitment of dNSpastin3Q-YFP-FKBP onto MTs efficiently triggered MT disassembly in living cells upon dimerization induction.

[7] = system: ciliary axonemes and primary cilia in NIH3T3 cells; assay: Disruption of primary cilia in serum-starved NIH3T3 cells (live-cell imaging); assay type: cell-based, mouse; settings: G0 NIH3T3 cells, CFP-FRB-MAP4m, rapamycin 100 nM
Protocol: The procedures of cell culture and transfection are as follows. African green monkey kidney cell line COS7 (CRL-1651), cervical cancer cell line HeLa (CCL-2), human osteosarcoma cell line U2OS (HTB-96), human embryonic kidney cell line HEK293T (CRL-3216), and mouse embryonic fibroblasts NIH3T3 cells (CRL-1658) were maintained at 37° C., 5% CO2, and 95% humidity in Dulbecco’s modified Eagle’s medium (DMEM) supplemented with 10% fetal bovine serum (FBS), and penicillin and streptomycin (Corning). To induce ciliogenesis, NIH3T3 cells were serum starved for 24 hr. COS7 cells were transfected with plasmid DNAs by using TurboFect transfection reagents (Thermo Fisher). HeLa, U2OS, HEK293T, and NIH3T3 cells were transfected with FuGENE HD (Promega). Transfected cells were incubated for 24-48 hr prior to imaging and other experiments.
The procedures of live-cell imaging are as follows. Live transfected cells cultured on poly(d-lysine)-coated glass coverslips (Hecht Assistent) were treated with either 100 nM rapamycin for rapid induction of protein dimerization and translocation or MT-targeting agents (10 µM nocodazole or 500 µM colchicine) during imaging. Live-cell imaging was conducted on a Nikon T1 inverted fluorescence microscope (Nikon) with a 60× oil objective (Nikon), a Prime camera (Photometrics), and 37° C., 5% CO2 heat stage (Live Cell Instrument). […]

[8] = system: mitotic spindles and intercellular bridges in HeLa cells; assay: Disruption of mitotic spindles and intercellular bridges in synchronized HeLa cells; assay type: cell-based; settings: CFP-FRB-MAP4m, rapamycin 100 nM
Protocol: The procedures of cell synchronization are as follows. Plasmid DNA (i.e., DNA construct) transfection was carried out 20-24 hr prior to cell cycle synchronization. For synchronization, HeLa cells were treated with 2 mM thymidine (Sigma) for 16-18 hr to induce arrest at G1/S phase and then were treated with 2.5 ng/ml RO3306 (a selective ATP-competitive inhibitor of CDK1)(Sigma) for 12 hr to induce arrest at G2/M phase. After being washed with warm DMEM, cells were incubated with DMEM and 10% FBS at 37° C., 5% CO2 for 30-60 min to enrich the population of metaphase and telophase cells.
FIGS. 5K to 5N show rapid disruption of mitotic spindles and intercellular bridges. In FIG. 5K, HeLa cells co-transfected with H2B—mCherry (H2B—mCh; a chromosome marker; red), CFP—FRB—MAP4m (a marker of mitotic spindles; blue), and dNSpastin3Q-YFP-FKBP (green) were synchronized in metaphase and treated with rapamycin (100 nM) to induce dNSpastin3Q-YFP-FKBP recruitment to mitotic spindles; scale bar, 10 µm. In FIG. 5L, HeLa cells co-transfected with H2B—mCherry (red), CFP—FRB—MAP4m (intercellular bridges; blue), and dNSpastin3Q-YFP-FKBP (green) were treated with rapamycin (100 nM) to induce dNSpastin3Q-YFP-FKBP recruitment to intercellular bridges; arrows indicate the intercellular bridges; scale bar, 10 µm. […] Data are shown as the mean ± S.E.M. Dotted lines indicate the cell boundaries.

[9] = system: centrosomes in HeLa cells; assay: Effect of MT disruption treatment on PACT-labeled centrosomes in HeLa cells; assay type: cell-based; settings: MT disruption treatment for 1 hr
Protocol: In FIG. 5O, HeLa cells co-transfected with EMTB—CFP—FRB (blue), dNSpastin3Q-YFP-FKBP (green), and PACT-mCh (a centrosomal marker; red) were treated with rapamycin (100 nM) and imaged; dotted lines indicate the cell boundary; insets show higher-magnification images of the centrosome regions; scale bar, 10 µm. […] Data are shown as the mean ± S.E.M.

EMTB-YFP-CIBN (Artificial Sequence), sequence (chain, as listed by the source): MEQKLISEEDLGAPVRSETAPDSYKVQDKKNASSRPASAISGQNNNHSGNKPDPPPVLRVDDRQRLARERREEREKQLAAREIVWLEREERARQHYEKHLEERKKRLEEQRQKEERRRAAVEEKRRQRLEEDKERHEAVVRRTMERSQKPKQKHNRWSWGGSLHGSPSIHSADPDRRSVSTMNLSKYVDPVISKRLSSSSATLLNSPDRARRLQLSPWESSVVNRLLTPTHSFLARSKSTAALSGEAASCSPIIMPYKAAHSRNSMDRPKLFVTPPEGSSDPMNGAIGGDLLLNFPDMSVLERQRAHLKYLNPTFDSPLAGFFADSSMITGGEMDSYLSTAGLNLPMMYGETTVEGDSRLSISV
MT-binding domain of ensconsin-cyan fluorescent protein-FKBP-rapamycin binding domain (EMTB-CFP-FRB) (Artificial Sequence), sequence (chain, as listed by the source): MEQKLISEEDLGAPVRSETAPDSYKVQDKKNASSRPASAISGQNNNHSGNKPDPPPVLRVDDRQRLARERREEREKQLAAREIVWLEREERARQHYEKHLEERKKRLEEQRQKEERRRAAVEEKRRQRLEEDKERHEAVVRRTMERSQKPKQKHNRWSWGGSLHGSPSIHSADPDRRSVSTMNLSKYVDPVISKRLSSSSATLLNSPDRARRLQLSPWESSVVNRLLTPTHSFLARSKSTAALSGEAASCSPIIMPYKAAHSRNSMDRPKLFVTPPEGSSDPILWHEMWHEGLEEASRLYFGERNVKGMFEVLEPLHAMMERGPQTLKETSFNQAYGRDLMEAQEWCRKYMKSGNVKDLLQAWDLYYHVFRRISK

half time of MT disruption (MT filament area) [1]: 53.1 min | T½ of translocation [2]: 55.4 s
Molecule: dNSpastin-YFP-FKBP-C2 domain of Lactadherin (dNSpastin-YFP-FKBP-C2Lact) (enzyme)

T½ of dissociation from MTs when the light was off [4]: 28.2 s | T½ of translocation onto MTs under light [5]: 34.6 s
B1: Cry2 tagged with the red fluorescent protein mCherry (mCh-Cry2) (protein)
chain: MKMDKKTIVWFRRDLRIEDNPALAAAAHEGSVFPVFIWCPEEEGQFYPGRASRWWMKQSLAHLSQSLKALGSDLTLIKTHNTISAILDCIRVTGATKVVFNHLYDPVSLVRDHTVKEKLVERGISVQSYNGDLLYEPWEIYCEKGKPFTSFNSYWKKCLDMSIESVMLPPPWRLMPITAAAEAIWACSIEELGLENEAEKPSNALLTRAWSPGWSNADKLLNEFIEKQLIDYAKNSKKVVGNSTSLLSPYLHFGEISVRHVFQCARMKQIIWARDKNSEGEESADLFLRGIGLREYSRYICFNFPFTHEQSLLSHLRFFPWDADVDKFKAWRQGRTGYPLVDAGMRELRATGWMHNRIRVIVSSFAVKFLLLPWKWGMKYFWDTLLDADLECDILGWQYISGSIPDGHELDRLDNPALQGAKYDPEGEYIRQWLPELARLPTEWIHHPWDAPLTVLKASGVELGTNYAKPIVDIDTARELLAKAISRTREAQIMIGAA
T½ of translocation onto EMTB-YFP-CIBN-labeled MTs in illuminated regions ([3]; blue light on): 34.6 ± 7.58 s | T½ of dissociation from MTs to the cytosol ([3]; light off): 28.2 ± 4.88 s | light-induced MT disassembly ([3]; local blue light illumination, SPY650-tubulin): did not lead to MT disassembly

polymerization rate of nascent MTs from fragments derived from cleavage [6]: 0.92 ± 0.04 µm/sec
B2: dNSpastin3Q: truncated spastin with three residues mutated to three glutamines, SEQ ID NO:6; used as tagged fusions (protein)
chain: T1 sequence (Q9QYY8 with tags, fused parts or gaps K308Q/K309Q/K310Q)
modifications: dNSpastin3Q
notes: used as tagged fusions
time to disassembly of axonemes and primary cilia [7]: ≤ 15 min | disruption of mitotic spindles and intercellular bridges [8]: quickly disrupted these MT-based structures | disruption of centrosomes [9]: did not disrupt centrosomes
